The assay has as its target YmgB (purified, biotinylated) (Escherichia coli) (UniProt P75993). Briefly: BLI; biotinylated YmgB or YmgB^R74G immobilised on streptavidin biosensors, SpoT^TGS-Helical 2-50 μM as analyte; Blitz, 25 °C; 50 mM Tris-HCl pH 8.0, 500 mM NaCl, 500 mM KCl, 2 mM β-mercaptoethanol, 2% glycerol, BSA 1 mg/ml; KD from steady-state responses, one site model. A general note: BLI is a label-free optical method that tracks binding on a fibre tip over time.
Sequence of UniProt P75993 (P75993 whole entry): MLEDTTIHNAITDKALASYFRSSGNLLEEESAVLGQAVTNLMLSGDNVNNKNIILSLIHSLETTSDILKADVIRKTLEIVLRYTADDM

The term Kd denotes the free concentration of one partner at which half of the binding sites on the other are occupied at equilibrium, for simple one-to-one binding. “SpoT^TGS-Helical (purified) (domain or fragment)” came in with a Kd of 8.73 µM.

For the origin of these results see paper PMC10704370.
